Measured values reported in publication PMC3498381, “Isolated Toll-like Receptor Transmembrane Domains Are Capable of Oligomerization” (PLoS ONE, 2012).
No end group written: not given here.

Tests used:
[1] = Sedimentation equilibrium analytical ultracentrifugation (SE-AUC); assay type: physicochemical; settings: for Oligomeric state (equilibrium model) / Average molecular weight obtained from the fit: SE-AUC; for Oligomeric state (equilibrium model): density matched 10 mM C14-betaine micelles, 100 mM HEPES pH 7.4, 25% D2O, 25 °C; for Average molecular weight obtained from the fit: peptide alone, global fit, single species model, 495 nm (FITC-TLR2) or 400 nm (coumarin-TLR6)
Method: Supplementary file pone.0048875.s003.tif: Figure S3 TLR2 Homotypic Sedimentation Equilibrium AUC. Sedimentation equilibrium profile at 495 nm of FITC-labeled TLR2 in density matched C14-betaine micelles (10 mM) in HEPES buffer (100 mM, pH 7.4). The partial specific volume and the solution density were fixed at 0.78730 mL/g and 1.031 g/mL, respectively. The data was analyzed using a global fitting routine. […] (TIF) Click here for additional data file.
Supplementary file pone.0048875.s004.tif: Figure S4 TLR6 Homotypic Sedimentation Equilibrium AUC. Sedimentation equilibrium profile at 400 nm of coumarin-labeled TLR6 in density matched C14-betaine micelles (10 mM) in HEPES buffer (100 mM, pH 7.4). The partial specific volume and the solution density were fixed at 0.78705 mL/g and 1.031 g/mL, respectively. The data was analyzed using a global fitting routine. […] (TIF) Click here for additional data file.
Supplementary file pone.0048875.s005.tif: Figure S5 TLR2-TLR6 Heterotypic Sedimentation Equilibrium AUC. Sedimentation equilibrium profile at 495 nm of FITC-labeled TLR2 in density matched C14-betaine micelles (10 mM) in HEPES buffer (100 mM, pH 7.4) in the presence of 2 equiv. of coumarin-labeled TLR6 peptide. The partial specific volume and the solution density were fixed at 0.78730 mL/g and 1.031 g/mL, respectively. The data was analyzed using a global fitting routine. […] (TIF) Click here for additional data file.
Equilibrium sedimentation was used primarily to determine the association state of TLR2, TLR6, and TLR2-TLR6. The experiments were performed in a Beckman XL-I analytical ultracentrifuge (Beckman Coulter) using six-channel carbon-epoxy composite centerpieces at 25 °C. Peptides were co-dissolved in trifluoroethanol (TFE) and C14-betaine. The organic solvent was removed using dry nitrogen gas and the resulting thin film of peptide/detergent mixture was dried overnight. The sample was then dissolved in buffer previously determined to match the density of the detergent component (100 mM HEPES buffer (pH= 7.4) buffer containing 25% D2O). The final concentration of C14-betaine is 10 mM in all of the samples. Peptide concentrations were determined by UV-Vis on the Beckman Coulter XL-I and dilutions were carried out to get concentrations in the desired absorbance ranges of the instrument (0.3-1) using the following extinction coefficients: 39,300 M^-1cm^-1 at 400 nm for coumarin labeled peptides and 69,000 M^-1cm^-1 at 495 nm for FITC labeled peptides. Data at different measurement speeds (30, 35 krpm) and different peptide:detergent ratios were analyzed by global curve-fitting of radial concentration gradients (measured using optical absorption) to the sedimentation equilibrium equation. Absorbance at both 400 nm and 495 nm was measured. Peptide partial specific volumes were calculated using previously described methods and residue molecular weights corrected for the 25% D2O exchange expected for the density-matched buffer. The solvent density (1.031 g/ml) was calculated using the program Sednterp. These coefficients were multiplied by the molar detergant ratio concentration units. […]
where E = baseline (zero concentration) absorbance, co is the peptide/detergent ratio of the peptide at ro, ε is the molar extinction coefficient, l is the optical path length, ω =2π*RPM, R= 8.3144 ×10^7 erg K^-1mol^-1 , T is temperature in K, M is the buoyant molecular weight of the peptide. […]

[2] = target: T1, 7-hydroxycoumarin labeled TLR1 TMD peptide (Homo sapiens, UniProt Q15399); assay: FRET titration, TLR2-TLR1; assay type: binding; settings: nM of acceptor labeled peptide; donor coumarin-TLR1 20 nM, fluorescein-TLR2 0-1500 nM, 1 mM C14-betaine, 100 mM HEPES pH 7.4; Hill equation; read-out: Dissociation constant, TLR2-TLR1 interaction
T1 construct: we synthesized peptides for the TLR1, TLR2, and TLR6 TMDs; made in house; host or cells: chemical solid-phase synthesis on Rink Amide resin (C-terminal amide)
T1 sequence (Q15399 581-601 limits assumed): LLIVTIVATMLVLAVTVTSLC
Method: (§1) Using the same TLR1, TLR2, and TLR6 peptides, as described above, we were able to monitor the heterotypic interactions between TLR2-TLR1 and TLR2-TLR6 using a previously reported Förster resonance energy transfer (FRET) assay. […] The dissociation constant for the TLR2-TLR1 interaction was 230.8±20.0 nM of acceptor labeled peptide and for TLR2-TLR6 it was 286.5±14.8 nM of acceptor labeled peptide (Fig. 6C). […] SE-AUC was also used to investigate the oligomeric state of the TLR2-TLR6 heterotypic interaction.
(§2) Figure 6 TLR2-TLR1 and TLR2-TLR6 Heterotypic Interactions Measured by Förster Resonance Energy Transfer. Synthetic TMD peptides were co-incubated in micelles with the FRET donor concentration fixed to be 20 nM and the FRET acceptor concentration varied from 0–1500 nM. The donor was excited at 415 nm and emission was monitored from 440–600 nm. Only donor emission is shown as the excitation-emission separation led to a high background signal seen in the acceptor channel. (A) TLR2-TLR1 donor channel. (B) TLR2-TLR6 donor channel. (C) FRET efficiency based on decrease in donor signal at increasing acceptor concentrations.
(§3) FRET was used to directly probe the heterotypic association of the synthetic peptides. FRET experiments were performed on a Horiba Fluorolog-3 using a 0.3 cm path length cuvette. […]

[3] = target: T2, 7-hydroxycoumarin labeled TLR6 TMD peptide (Homo sapiens, UniProt Q9Y2C9); assay: FRET titration, TLR2-TLR6; assay type: binding; settings: nM of acceptor labeled peptide; donor coumarin-TLR6 20 nM, fluorescein-TLR2 0-1500 nM, 1 mM C14-betaine, 100 mM HEPES pH 7.4; Hill equation; read-out: Dissociation constant, TLR2-TLR6 interaction
T2 construct: we synthesized peptides for the TLR1, TLR2, and TLR6 TMDs; made in house; host or cells: chemical solid-phase synthesis on Rink Amide resin (C-terminal amide)
Method: as §1, §2, §3

[4] = 10 mM C14-betaine, 100 mM HEPES pH 7.4

Substance | Oligomeric state (equilibrium model) [1] | Average molecular weight obtained from the fit [1, 4] [Da] | Kd [2] [nM] | Average molecular weight obtained from the fit, in the presence of TLR6 ([1]; SE-AUC at 495 nm, FITC-labeled TLR2 with 2 equiv. of coumarin-labeled TLR6 peptide, 10 mM C14-betaine, 100 mM HEPES pH 7.4) [Da] | Kd [3] [nM]
TLR6*: TLR6 TMD chimera with nonfunctional ToxR* domain (negative phenotype) (GNRASITLLIVTIGATMLVLAVTVTSLCIYLGSLIN; also: fused to non-functional ToxR* (S87H) and maltose binding protein, ends not given here) | monomer-dimer equilibrium | 7680±866 | – | – | –
TLR2*: TLR2 TMD chimera with nonfunctional ToxR* domain (negative phenotype) (GNRASALVSGMCCALFLLILLTGVLCGSLIN; cysteine pairing not given here; also: fused to non-functional ToxR* (S87H) and maltose binding protein, ends not given here) | monomer-dimer-tetramer equilibrium | 14135±370 | 231 ± 20 | 12330±506 | 286 ± 14.8
